The values that follow come from the nanobody polyreactivity screen of Harvey et al. (2022).

The data set is described as follows: yeast display, Sf9 membrane polyspecificity reagent, FACS + sequencing; frameworks hold sequencing errors. In a few lines: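 Galactose-induced (36–48 hours) yeast carrying a synthetic nanobody display library were exposed to 10% biotinylated, detergent-solubilized Sf9 membrane reagent at 4 °C for 1 hour. FACS followed streptavidin microbead enrichment, using low and high (top ~1%) gates for expression (anti-HA) and reagent binding (streptavidin). Colony PCR, MiSeq 2 × 250 sequencing and CDR-length filtering followed. Labels for polyreactivity reflect the gate of origin.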
“QVQLVESGGGLVQAGGSLRLSCAASGRTSILYAMGWYRQAPGKERELVATIYSGGRTYYADSVKGRFTISRDNAKNTVYLQMNSLKPEDTAVYYCAARPNATPRGQTKHYYWGQGTQVTVSS”: the “polyreactivity (PSR sort gate)” value is reported as “high polyreactivity”.

For the sequence “QVQLVESGGGLVQAGGSLRLSCAASGRTSKGNTMGWYRQAPGKEREFVATISRSGGSTYYADSVKGRFTISRDNAKNTVYLQMNSLKPEDTAVYYCAARISRQRSYSRDYWGQGTQVTVSS”, the “polyreactivity (PSR sort gate)” value is reported as “high polyreactivity”.

As to “QVQLVESGGGLVQAGGSLRLSCAASGRTSLAYAMGWYRQAPGKERELVAAINTRGGSTYYADSVKGRFTISRDNAKNTVFLQINSLKPEDTAVYYCAKGPRLYFTRDKAHWKYDYWGQGTQVTVSS”, the “polyreactivity (PSR sort gate)” value is given as “low polyreactivity”.

Regarding “QVQLVESGGGLVQAGGSLRLSCAASGRTSLGYAMGWYRQAPGKERELVAAISGGTTYYADSVKGRCTISRDNAKNPVYLQMNSLKPEDTAVYYCNAVYVWFSGAPRRYTKRYYWGQGTQVTVSS”, the “polyreactivity (PSR sort gate)” value is on record as “high polyreactivity”.

As to “QVQLVESGGGLVQAGGSLRLSCAASGRTSLRYSMGWYRQAPGKERELVAAITSSGATTYYADSVKGRFTISRDNAKNTVYLQMNSLKPEDTAVYYCAAVYSAKRGSGGFGYWGQGTQVTVSS”, the “polyreactivity (PSR sort gate)” value is “high polyreactivity”. On to “QVQLVESGGGLVQAGGSLRLSCAASGRTSNFNAMGWYRQAPGKERELVAAINSDGSTYYADSVKGRFTISRDNAKNTVYLQMNSLKPEDTAVYYCAAVSLFRDSQFDYWGQGTQVTVSS”, for which the “polyreactivity (PSR sort gate)” value is on record as “low polyreactivity”. Regarding “QVQLVESGGGLVQAGGSLRLSCAASGRTSQYYAMGWYRPAPGKERELVASISRSGRTYYADSVKGRFTISRDNAKNTVYLQMNSLKPEDTAVYYCAAAKRTTHRYPYDYWGQGTQVTVSS”, the “polyreactivity (PSR sort gate)” value is reported as “high polyreactivity”. Consider “QVQLVESGGGLVQAGGSLRLSCAASGRTSRHYAMGWYRQAPGKERELVAAISRSGGSTYYADSVKGRFTISRDNAKNTFYLQMNILKPDDSAVYYCNKDLKYYTSTYDYWGQGTQVTVSS”, for which the “polyreactivity (PSR sort gate)” value was “high polyreactivity”. With “QVQLVESGGGLVQAGGSLRLSCAASGRTSRYAMGWSRQAPGKERELVAAITSSGGRTYYADSVKGRFTISRDNAKNTVYLQMNSLKPEDTAVYYCAAGYLLWRTWDYAAGHNYWGQGTQVTVSS” the entry was “high polyreactivity”; with “QVQLVESGGGLVQAGGSLRLSCAASGRTSSSNAMGWYRQAPGKERELVATISRTGSTYYADSVKGRFTISRDNAKNTVYLQMNSLKPEDTAVYYCNRYFSEALLHGSSYNRYYYWGQGTQVTVSS”, “low polyreactivity”; with “QVQLVESGGGLVQAGGSLRLSCAASGRTSTGYAMGWYRPAPGKERELVAGIDKIGGRTYYADSVKGRFTISRDNEKNTVYLQMNSLKPEDTAVYYCNRVPRRSIRYDYWGQGTKVTVSS”, “high polyreactivity”. As to “QVQLVESGGGLVQAGGSLRLSCAASGRTTLLYAMGWYRQAPGKERELVATIRYTGGSTYADSVKGHFTISRDNAKNTVYLQMNILKPEDTAVYYCNARSYQYDGGHRYWGQGTQVTVSL”, the “polyreactivity (PSR sort gate)” value is listed as “high polyreactivity”. In the case of “QVQLVESGGGLVQAGGSLRLSCAASGRTVGVYAMGWYRQAPGKERELVATITSGASTNYADSVKARFTISRDNAKNTVYLQMTSLKPEDTAVYYCNARRVAYASYSHPRVLDDYWGQGTQVTVST”, the “polyreactivity (PSR sort gate)” value is “low polyreactivity”. As for “QVQLVESGGGLVQAGGSLRLSCAASGRTVGWYAMGWYRQAPGKERELVAAITWRGGSTYYADSVKGRFTISRDNAKNTVYLQMTSLKPEDTAVYYCAAAAEKRSYYWGQGTQVTVSS”, the “polyreactivity (PSR sort gate)” value is reported as “high polyreactivity”. Consider “QVQLVESGGGLVQAGGSLRLSCAASGRTVLHYDMGWYRQAPGKERELVASISSGVSTHYADSVKGRFTISRDNAKNTVYLQMNSLQPEDTAVYYCAARPYRFGRYGYDYDYWGQGTQVTVSS”, for which the “polyreactivity (PSR sort gate)” value was “high polyreactivity”. Consider “QVQLVESGGGLVQAGGSLRLSCAASGRTVWGYGMGWYRQAPGKERELVATISSGGSTYYADSVKGRFTISRDNAKNTVYLQMNSLKPEDTAVYYCAARPPRTYWRYQSDYWGLGTQVTVSS”, for which the “polyreactivity (PSR sort gate)” value is on record as “high polyreactivity”.

As to “QVQLVESGGGLVQAGGSLRLSCAASGRTYDQYVMGWYRQAPGKERELVAAITSGGSTYYADSVKGRFTISRDNAKNTVYLLMNSLKPEDTAVYYCNARTSVLHDYWGQGTQVTVSS”, the “polyreactivity (PSR sort gate)” value is “low polyreactivity”.

Consider “QVQLVESGGGLVQAGGSLRLSCAASGRTYGIYAMGWYRQAPGKERELVADITIGGSTYYADSVMGRFTISRDNAKNTVYLQMNSLKPEDTAVYYCNADFVVQYYFTYYRVFTYDYWGLGTQVTVSS”, for which the “polyreactivity (PSR sort gate)” value was “low polyreactivity”. As to “QVQLVESGGGLVQAGGSLRLSCAASGRTYGRNAMGWYRQEPGKDRELVASITKRGGSTYYADSVKGRFTISRDNAKNTVYLQMNSLKPEDTAVYYCAVEAYDYWGQGSQVTVSS”, the “polyreactivity (PSR sort gate)” value was “high polyreactivity”. For the sequence “QVQLVESGGGLVQAGGSLRLSCAASGRTYGYYAMGWYRQAPGKERELVAAITRSGGSTYYADSVKGRFTISRDNAKNTVYLQMNSLKPEDTAVYYCNAVYYKGYGYWGQGSQVTVSS”, the “polyreactivity (PSR sort gate)” value was “high polyreactivity”. With “QVQLVESGGGLVQAGGSLRLSCAASGRTYKYYAMGWYRQAPGKERELVAAISRGGSTNYADSVKGRFTISRDNAKKTVYLQVNSLKPEDTAVYYCARRYIVQSGDDYWGQGTQVSVSS” the entry was “low polyreactivity”; with “QVQLVESGGGLVQAGGSLRLSCAASGRTYPGYSMGWYRQAPGKERELVAAITRGSTNYADSVKGRFTISRDNAKNTVYLQMNSLKPEYTAVYYCATRGYYYWTHYDYWGHGTQVTVSS”, “low polyreactivity”. For the sequence “QVQLVESGGGLVQAGGSLRLSCAASGRTYYDYAKGCYRQAPGKEREFVSAITDRDASTSYADSVKGRFTISRDNAKTTVYLQMNSLKPYDTAVYYCAADEYWYKPYVGELYAYVYWGEGTQVTVSS”, the “polyreactivity (PSR sort gate)” value was “low polyreactivity”. With “QVQLVESGGGLVQAGGSLRLSCAASGRVYAMGWYRQAPGKERELVAAISRNGGSTYYADSVKGRFTISRDNAKNNVYLQMNSLKPEDTAVYYCNKYSGYKGTDGGDYWGQGTQVTVSS”, the “polyreactivity (PSR sort gate)” value is “low polyreactivity”. Take “QVQLVESGGGLVQAGGSLRLSCAASGSARYAMGWYRQAPGKERELVAAISRRGGSTFYADSVKGRFTISRDNAKNTVYLQMHSLKPEDTAVYYCAADGRISYDYWGQGTQVTVSS”: the “polyreactivity (PSR sort gate)” value was “low polyreactivity”. Regarding “QVQLVESGGGLVQAGGSLRLSCAASGSFLEPYSMGRYRQATGKERELVAAISFSDTSTYYADSVKGRFTISRDNAKNTVYLQMNSLKQEDTAVYYCAATYVLYWGYEYDYWGQGTQVTVSS”, the “polyreactivity (PSR sort gate)” value is “high polyreactivity”. For the sequence “QVQLVESGGGLVQAGGSLRLSCAASGSFLVYYAMGWYRQAPGKERELVAAISWRGDSTSYADSVKGRFTISRDNAKNTVYLQMNSLKPEETAVYYCATAHDYAFYRYWYVPSEYNYWGQGTQVTVSS”, the “polyreactivity (PSR sort gate)” value is “low polyreactivity”. For the sequence “QVQLVESGGGLVQAGGSLRLSCAASGSHFSSYVMGGYRQGPGKERELVAAISSIGGSTYYADSVKGRFTISRDNAKNTVYLQMNSLKPEDTAVYYCAAEPPGSTYEGGYWGQGTQVTVSS”, the “polyreactivity (PSR sort gate)” value is recorded as “low polyreactivity”. With “QVQLVESGGGLVQAGGSLRLSCAASGSIAHYAMGWYRQDPGKERELVAAINWSGGSTNYADSVKGRFTISRDNAKNTVYLQMNSMKPEDTAVYYCSAQKRGPGYPYYYWGQGTQVTVSS” the entry was “high polyreactivity”; with “QVQLVESGGGLVQAGGSLRLSCAASGSICAYYAMGWYRQAPGKERELVAAISGTGGSTNYADSVKGRFTISRDNAKNNVYLQMNSLKPEDTAVYYCAKDYSFQWRNEFNLAGEYDYWGQGTQVTVSS”, “low polyreactivity”; with “QVQLVESGGGLVQAGGSLRLSCAASGSICGSYAMGWYRQAPGKERELVAAITRSGSRTYYADSVKGRFTISRDNAKNTVYLQMISLKPEDTAVYFCATGYPGGFDYWGQGTQVTVSS”, “high polyreactivity”. As for “QVQLVESGGGLVQAGGSLRLSCAASGSICRRNDMGWYRQAPGKERELVAAISSNGGSTYYADSVKGRFTISRDNAKNTVYLQMNSLKPEDTAVYYCNALVRVRYSPRYGYDYWGQGTQVTVSS”, the “polyreactivity (PSR sort gate)” value is “high polyreactivity”. Consider “QVQLVESGGGLVQAGGSLRLSCAASGSICVQYAMGRSRQAPGKERELVAAISNSGGSTYYADSVKGRFTISRDTAKNTVYLQMNSLKPEDTAVYYCAARYHTRGAGRPYYYWGQGTQVTVSS”, for which the “polyreactivity (PSR sort gate)” value is listed as “high polyreactivity”.

As to “QVQLVESGGGLVQAGGSLRLSCAASGSIFAAYTMGWYRQAPGKERELVAAISVSTVSTYYADSVKGRFTISRDNAKNTVYLHMNSLKPEDTAVYYCNADATDSYPEKDDHDSWGQGTQVTVSS”, the “polyreactivity (PSR sort gate)” value was “low polyreactivity”.

In the case of “QVQLVESGGGLVQAGGSLRLSCAASGSIFAAYTMGWYRQAPGKERELVAAISVSTVSTYYADSVKGRFTISRDTAKNTVYLQMNRLKPEDTAVYYCNADATDSYPEKDEHDSWGQGTQVTVSS”, the “polyreactivity (PSR sort gate)” value is on record as “low polyreactivity”. With “QVQLVESGGGLVQAGGSLRLSCAASGSIFAAYTMGWYRQAPGKERELVATISSGGSTYYADSVKGRFTISRDNAKNTVYLQMNSLKPEDTAVYYCAAVAYTYTEYEYWGQGTQVTVSS”, the “polyreactivity (PSR sort gate)” value is “low polyreactivity”.

Take “QVQLVESGGGLVQAGGSLRLSCAASGSIFADNAKGWYRQAPGKEMDLVAAITWSGGSTYYADSVKGRFTISRDNAKNTVYLQMNSLKPEDTAVYYCNADDAVEYSYGGGTEFYYWGQGTQVTVSS”: the “polyreactivity (PSR sort gate)” value is “low polyreactivity”. Regarding “QVQLVESGGGLVQAGGSLRLSCAASGSIFADYAMGWSRQAPGKEREFVAAITRSGTSTYYADSVKGRFTISRDNAKNTVYLQMNSLKPEDTAVYYCAKTEVLLYLYTLDYWGQGTQVTVSS”, the “polyreactivity (PSR sort gate)” value was “low polyreactivity”.

On to “QVQLVESGGGLVQAGGSLRLSCAASGSIFADYAMGWYRQAPGKERELVAVISRRGGTTYYADSVKGRFTISRDNAKNTVYLQMNSLKPEDTAVYYCAARRSFNEYDYWGQGTQVTVSS”, for which the “polyreactivity (PSR sort gate)” value is recorded as “high polyreactivity”. Take “QVQLVESGGGLVQAGGSLRLSCAASGSIFADYVMGWYRQAPGKERELVAAISRGGGRTYYADSVKGRFTISRDNAKNTVYLQMNSLKPEDTAVYYCAARGYPTNYDPGYTYDYWGQGTQVTVSS”: the “polyreactivity (PSR sort gate)” value was “high polyreactivity”.
